B1: E3 ubiquitin-protein ligase LNX (Homo sapiens), Q8TBB1 (parent)
chain: MNQPESANDPEPLCAVCGQAHSLEENHFYSYPEEVDDDLICHICLQALLDPLDTPCGHTYCTLCLTNFLVEKDFCPMDRKPLVLQHCKKSSILVNKLLNKLLVTCPFREHCTQVLQRCDLEHHFQTSCKGASHYGLTKDRKRRSQDGCPDGCASLTATAPSPEVSAAATISLMTDEPGLDNPAYVSSAEDGQPAISPVDSGRSNRTRARPFERSTIRSRSFKKINRALSVLRRTKSGSAVANHADQGRENSENTTAPEVFPRLYHLIPDGEITSIKINRVDPSESLSIRLVGGSETPLVHIIIQHIYRDGVIARDGRLLPGDIILKVNGMDISNVPHNYAVRLLRQPCQVLWLTVMREQKFRSRNNGQAPDAYRPRDDSFHVILNKSSPEEQLGIKLVRKVDEPGVFIFNVLDGGVAYRHGQLEENDRVLAINGHDLRYGSPESAAHLIQASERRVHLVVSRQVRQRSPDIFQEAGWNSNGSWSPGPGERSNTPKPLHPTITCHEKVVNIQKDPGESLGMTVAGGASHREWDLPIYVISVEPGGVISRDGRIKTGDILLNVDGVELTEVSRSEAVALLKRTSSSIVLKALEVKEYEPQEDCSSPAALDSNHNMAPPSDWSPSWVMWLELPRCLYNCKDIVLRRNTAGSLGFCIVGGYEEYNGNKPFFIKSIVEGTPAYNDGRIRCGDILLAVNGRSTSGMIHACLARLLKELKGRITLTIVSWPGTFL
partner: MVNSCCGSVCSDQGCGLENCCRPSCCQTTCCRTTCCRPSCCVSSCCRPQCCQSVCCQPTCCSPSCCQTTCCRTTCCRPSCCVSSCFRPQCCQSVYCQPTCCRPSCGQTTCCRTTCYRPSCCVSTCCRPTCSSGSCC
B2: Zinc finger and BTB domain-containing protein 49 (Homo sapiens), Q6ZSB9 (parent)
chain: MDPVATHSCHLLQQLHEQRIQGLLCDCMLVVKGVCFKAHKNVLAAFSQYFRSLFQNSSSQKNDVFHLDVKNVSGIGQILDFMYTSHLDLNQDNIQVMLDTAQCLQVQNVLSLCHTFLKSATVVQPPGMPCNSTLSLQSTLTPDATCVISENYPPHLLQECSADAQQNKTLDESHPHASPSVNRHHSAGEISKQAPDTSDGSCTELPFKQPNYYYKLRNFYSKQYHKHAAGPSQERVVEQPFAFSTSTDLTTVESQPCAVSHSECILESPEHLPSNFLAQPVNDSAPHPESDATCQQPVKQMRLKKAIHLKKLNFLKSQKYAEQVSEPKSDDGLTKRLESASKNTLEKASSQSAEEKESEEVVSCENFNCISETERPEDPAALEDQSQTLQSQRQYACELCGKPFKHPSNLELHKRSHTGEKPFECNICGKHFSQAGNLQTHLRRHSGEKPYICEICGKRFAASGDVQRHIIIHSGEKPHLCDICGRGFSNFSNLKEHKKTHTADKVFTCDECGKSFNMQRKLVKHRIRHTGERPYSCSACGKCFGGSGDLRRHVRTHTGEKPYTCEICNKCFTRSAVLRRHKKMHCKAGDESPDVLEELSQAIETSDLEKSQSSDSFSQDTSVTLMPVSVKLPVHPVENSVAEFDSHSGGSYCKLRSMIQPHGVSDQEKLSLDPGKLAKPQMQQTQPQAYAYSDVDTPAGGEPLQADGMAMIRSSLAALDNHGGDPLGSRASSTTYRNSEGQFFSSMTLWGLAMKTLQNENELDQ
B3: E3 ubiquitin-protein ligase LNX (Homo sapiens), Q8TBB1 (parent)
chain: B1 chain
partner: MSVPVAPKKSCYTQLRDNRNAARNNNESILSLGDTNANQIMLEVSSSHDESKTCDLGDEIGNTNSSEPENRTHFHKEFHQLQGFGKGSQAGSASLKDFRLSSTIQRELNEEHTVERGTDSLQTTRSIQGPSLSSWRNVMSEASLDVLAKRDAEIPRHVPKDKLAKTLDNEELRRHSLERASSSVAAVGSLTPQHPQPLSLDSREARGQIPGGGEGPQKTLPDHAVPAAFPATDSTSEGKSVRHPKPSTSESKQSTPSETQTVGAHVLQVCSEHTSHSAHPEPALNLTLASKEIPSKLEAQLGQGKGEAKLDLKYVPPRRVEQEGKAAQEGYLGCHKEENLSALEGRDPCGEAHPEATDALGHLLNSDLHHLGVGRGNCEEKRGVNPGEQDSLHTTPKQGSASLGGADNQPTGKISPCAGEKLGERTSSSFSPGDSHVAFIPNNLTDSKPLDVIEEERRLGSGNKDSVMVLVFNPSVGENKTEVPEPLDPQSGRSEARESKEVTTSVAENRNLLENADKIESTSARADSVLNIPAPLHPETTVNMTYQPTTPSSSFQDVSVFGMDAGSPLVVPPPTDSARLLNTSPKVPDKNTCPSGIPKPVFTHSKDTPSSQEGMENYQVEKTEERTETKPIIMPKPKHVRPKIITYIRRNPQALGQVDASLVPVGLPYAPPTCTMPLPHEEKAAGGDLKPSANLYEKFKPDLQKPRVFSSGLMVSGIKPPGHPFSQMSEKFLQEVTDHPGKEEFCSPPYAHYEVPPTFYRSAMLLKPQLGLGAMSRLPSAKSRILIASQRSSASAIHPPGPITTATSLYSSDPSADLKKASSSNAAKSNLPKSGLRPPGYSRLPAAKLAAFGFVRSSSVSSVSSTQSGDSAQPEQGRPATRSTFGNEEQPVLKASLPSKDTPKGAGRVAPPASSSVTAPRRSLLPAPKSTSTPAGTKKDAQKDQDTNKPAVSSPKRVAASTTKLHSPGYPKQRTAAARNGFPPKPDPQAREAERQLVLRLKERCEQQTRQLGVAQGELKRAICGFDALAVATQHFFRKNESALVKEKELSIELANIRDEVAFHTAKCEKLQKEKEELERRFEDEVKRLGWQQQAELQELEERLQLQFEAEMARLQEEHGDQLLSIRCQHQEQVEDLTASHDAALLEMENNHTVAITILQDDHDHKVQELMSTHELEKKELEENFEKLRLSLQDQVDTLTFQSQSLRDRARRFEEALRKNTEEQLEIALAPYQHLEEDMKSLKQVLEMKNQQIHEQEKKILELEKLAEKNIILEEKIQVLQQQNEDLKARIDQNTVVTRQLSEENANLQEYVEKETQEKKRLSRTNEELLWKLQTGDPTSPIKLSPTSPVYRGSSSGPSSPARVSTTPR
B4: Abl interactor 2 (Homo sapiens), Q9NYB9 (parent)
chain: MAELQMLLEEEIPGGRRALFDSYTNLERVADYCENNYIQSADKQRALEETKAYTTQSLASVAYLINTLANNVLQMLDIQASQLRRMESSINHISQTVDIHKEKVARREIGILTTNKNTSRTHKIIAPANLERPVRYIRKPIDYTILDDIGHGVKWLLRFKVSTQNMKMGGLPRTTPPTQKPPSPPMSGKGTLGRHSPYRTLEPVRPPVVPNDYVPSPTRNMAPSQQSPVRTASVNQRNRTYSSSGSSGGSHPSSRSSSRENSGSGSVGVPIAVPTPSPPSVFPAPAGSAGTPPLPATSASAPAPLVPATVPSSTAPNAAAGGAPNLADGFTSPTPPVVSSTPPTGHPVQFYSMNRPASRHTPPTIGGSLPYRRPPSITSQTSLQNQMNGGPFYSQNPVSDTPPPPPPVEEPVFDESPPPPPPPEDYEEEEAAVVEYSDPYAEEDPPWAPRSYLEKVVAIYDYTKDKEDELSFQEGAIIYVIKKNDDGWYEGVMNGVTGLFPGNYVESIMHYSE
partner: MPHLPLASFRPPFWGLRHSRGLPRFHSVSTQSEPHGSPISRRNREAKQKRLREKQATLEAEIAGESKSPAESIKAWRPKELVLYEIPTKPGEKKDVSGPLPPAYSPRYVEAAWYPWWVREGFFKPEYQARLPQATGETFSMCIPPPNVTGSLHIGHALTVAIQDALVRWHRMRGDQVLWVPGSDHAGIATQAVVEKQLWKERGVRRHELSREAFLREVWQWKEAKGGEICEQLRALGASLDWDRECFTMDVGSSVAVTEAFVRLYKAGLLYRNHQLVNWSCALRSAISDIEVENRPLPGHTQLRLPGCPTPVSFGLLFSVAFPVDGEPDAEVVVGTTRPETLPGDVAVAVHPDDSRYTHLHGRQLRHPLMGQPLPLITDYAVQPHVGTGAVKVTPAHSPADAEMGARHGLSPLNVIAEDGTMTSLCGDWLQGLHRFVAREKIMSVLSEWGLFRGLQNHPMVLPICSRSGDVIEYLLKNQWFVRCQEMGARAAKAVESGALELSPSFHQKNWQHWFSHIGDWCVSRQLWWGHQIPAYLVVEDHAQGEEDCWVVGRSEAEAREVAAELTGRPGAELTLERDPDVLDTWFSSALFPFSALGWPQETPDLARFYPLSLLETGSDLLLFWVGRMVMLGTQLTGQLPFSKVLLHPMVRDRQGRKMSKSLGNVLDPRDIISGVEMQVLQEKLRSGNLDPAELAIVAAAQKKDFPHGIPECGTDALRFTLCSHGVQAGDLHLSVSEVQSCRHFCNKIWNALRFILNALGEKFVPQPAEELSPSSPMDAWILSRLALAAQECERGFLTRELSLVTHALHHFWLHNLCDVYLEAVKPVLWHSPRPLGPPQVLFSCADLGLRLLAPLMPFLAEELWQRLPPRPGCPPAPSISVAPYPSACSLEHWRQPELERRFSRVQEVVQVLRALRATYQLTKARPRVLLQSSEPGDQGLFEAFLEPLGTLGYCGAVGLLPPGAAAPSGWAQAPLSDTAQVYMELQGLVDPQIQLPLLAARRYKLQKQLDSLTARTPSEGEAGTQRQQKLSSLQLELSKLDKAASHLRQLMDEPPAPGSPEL
B5: Consortin (Homo sapiens), Q6PJW8 (parent)
chain: MDDSDTPTYYLQIEPQDGCHPGDSVERSVTCLPSASDENENQLDGDGHEHLTSSDSAMGKPQVSEQDSLNNNESCTLSCEVAAGENLQNTLCEASRDEQAFLGKDKKIPGKRSPRSKKGTAKKIPPGLFSGDIAPLMQEKVLSAVTYAVDDEEAAEVNANEQPEAPKLVLQSLFSLIRGEVEQLDSRALPLCLHQIAESYFQEEDYEKAMKFIQLERLYHEQLLANLSAIQEQWETKWKTVQPHTVTALRNSEKGFNGEDFERLTKICATHQDPLLSKHKIAAVEKSQERKCSTQLLVSEDPKEGGATTKESESKTCLGTESSKESQHTVEPLGSSPCCHQMDVQTDSPSLSVTAGKDHMEELLCSAEATLALHTQSSETAGSPSGPDSSEDACEDDSRLQLAQTEACQDVARIEGIAEDPKVFLSSKSKTEPLISPGCDRIPPALISEGKYSQAQRKELRLPLRDASEALPTDQLENNELNELQQPDLTDSDGKSPQAQADSDGSENVLCGNNQISDLGILLPEVCMAPEEKGDKDDQLNKETEDYLNSLLEGCLKDTEDSLSYEDNQDDDSDLLQDLSPEEASYSLQENLPSDESCLSLDDLAKRIEIAEVVPTEGLVSILKKRNDTVGDHPAQMQHKPSKRRVRFQEIDDSLDQDEVGGGSCILLVLLCIATVFLSVGGTALYCTFGDMESPVCTDFADNMDFYYTKLLQGVAELKHWIYLS
B6: E3 ubiquitin-protein ligase LNX (Homo sapiens), Q8TBB1 (parent)
chain: B1 chain
partner: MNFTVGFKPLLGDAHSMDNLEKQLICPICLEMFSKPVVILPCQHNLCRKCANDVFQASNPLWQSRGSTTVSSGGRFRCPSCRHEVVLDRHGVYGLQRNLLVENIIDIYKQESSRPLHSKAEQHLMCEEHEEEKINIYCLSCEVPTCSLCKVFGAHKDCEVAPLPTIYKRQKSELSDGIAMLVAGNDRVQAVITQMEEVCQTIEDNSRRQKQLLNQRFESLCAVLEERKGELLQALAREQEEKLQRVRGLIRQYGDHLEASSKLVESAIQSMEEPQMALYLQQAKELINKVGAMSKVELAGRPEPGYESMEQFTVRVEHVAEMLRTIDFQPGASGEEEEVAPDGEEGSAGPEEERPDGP

Variants of: B1
Conditions: with kra42_human KRTAP4-2, Q9BYR5

Row | Variant | effect of a mutation on the interaction
1 | E295K | disrupting interaction strength

Variants of: B2
Conditions: with gopc_human GOPC

Row | Variant | effect of a mutation on the interaction
2 | D88V | with no effect

Variants of: B3
Conditions: with mtus2_human MTUS2, Q5JR59

Row | Variant | effect of a mutation on the interaction
3 | E295K | disrupting interaction strength

Variants of: B4
Conditions: with syvm_human VARS2, Q5ST30

Row | Variant | effect of a mutation on the interaction
4 | E202K | with no effect

Variants of: B5
Conditions: with rop1a_human ROPN1, Q9HAT0
rop1a_human ROPN1, Q9HAT0, sequence (Q9HAT0 whole entry): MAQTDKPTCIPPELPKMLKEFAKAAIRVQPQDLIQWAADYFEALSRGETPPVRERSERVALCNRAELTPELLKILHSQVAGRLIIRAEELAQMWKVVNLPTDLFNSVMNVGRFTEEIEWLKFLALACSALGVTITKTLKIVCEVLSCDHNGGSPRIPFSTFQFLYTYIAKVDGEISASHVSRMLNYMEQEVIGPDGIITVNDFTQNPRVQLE

Row | Variant | effect of a mutation on the interaction
5 | V25M | disrupting interaction strength

Variants of: B6
Conditions: with tri54_human TRIM54, Q9BYV2

Row | Variant | effect of a mutation on the interaction
6 | E295K | disrupting interaction strength

From IntAct's records for PubMed 29892012
